Test results from patent US20100221257A1 (AstraZeneca / MedImmune, published 2010).

T1: human IL-1R1, endogenous on human cells (HeLa cells; whole blood) (human, UniProt P14778 18-569)
T1 sequence (looked up): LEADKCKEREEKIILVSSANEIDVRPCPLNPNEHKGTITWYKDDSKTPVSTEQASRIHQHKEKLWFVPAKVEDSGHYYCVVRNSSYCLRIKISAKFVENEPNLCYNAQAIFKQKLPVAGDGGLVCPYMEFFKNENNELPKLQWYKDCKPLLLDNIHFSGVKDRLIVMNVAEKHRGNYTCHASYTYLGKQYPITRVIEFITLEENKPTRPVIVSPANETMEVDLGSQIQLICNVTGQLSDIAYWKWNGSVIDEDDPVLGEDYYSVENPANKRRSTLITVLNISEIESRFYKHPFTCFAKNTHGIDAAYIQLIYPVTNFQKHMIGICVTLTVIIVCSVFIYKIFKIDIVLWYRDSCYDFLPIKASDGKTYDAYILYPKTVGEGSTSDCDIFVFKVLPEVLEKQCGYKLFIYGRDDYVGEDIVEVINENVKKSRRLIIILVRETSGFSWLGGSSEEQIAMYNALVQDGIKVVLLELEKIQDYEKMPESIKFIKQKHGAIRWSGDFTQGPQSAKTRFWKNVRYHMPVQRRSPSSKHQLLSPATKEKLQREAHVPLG

T2: cynomolgus IL-1R1, endogenous on CYNOM-K1 cells (cynomolgus monkey, UniProt A0A7N9CMI5 18-569)
T2 sequence: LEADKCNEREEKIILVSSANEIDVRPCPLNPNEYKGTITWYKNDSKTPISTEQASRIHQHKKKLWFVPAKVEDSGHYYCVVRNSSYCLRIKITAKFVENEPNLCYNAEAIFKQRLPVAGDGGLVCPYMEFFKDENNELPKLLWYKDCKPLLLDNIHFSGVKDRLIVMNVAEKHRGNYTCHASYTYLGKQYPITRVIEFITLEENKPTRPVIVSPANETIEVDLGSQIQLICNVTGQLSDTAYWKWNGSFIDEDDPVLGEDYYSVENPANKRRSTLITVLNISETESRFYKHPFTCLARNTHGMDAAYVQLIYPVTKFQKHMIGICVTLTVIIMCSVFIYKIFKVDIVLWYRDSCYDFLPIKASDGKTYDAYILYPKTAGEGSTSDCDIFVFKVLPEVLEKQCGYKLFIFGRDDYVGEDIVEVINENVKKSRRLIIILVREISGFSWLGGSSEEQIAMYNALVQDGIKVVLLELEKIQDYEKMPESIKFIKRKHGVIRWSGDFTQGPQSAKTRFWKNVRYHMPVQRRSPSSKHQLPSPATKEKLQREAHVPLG


What was measured:
[1] = molecular target: T1, human IL-1R1, endogenous on human cells …; test: cell-based or functional assay
[2] = molecular target: T3, human histidine tagged (HIS) IL1RFc fusion protein (human); test: HTRF receptor-ligand assay, IgG inhibiting HIS FLAG IL-1Ra binding to cryptate labelled human HIS IL1RFc
T3 construct: Biotinylated or cryptate labelled in some assays; also called human HIS IL1RFc; huIL-1R1-Fc
Procedure: The ability of lead antibodies to inhibit IL-1Ra to IL-1R1 was assessed in a receptor-ligand binding HTRF® (Homogeneous Time-Resolved Fluorescence) assay format for inhibition of HIS FLAG tagged human IL1Ra (In house, E. Coli expressed; HIS FLAG IL-1RA) binding to human histidine tagged (HIS) IL1RFc fusion protein (in house), as described in the Materials and methods section.
A titration of inhibitor was used in order to establish the clone potency as measured by IC₅₀ values in the assay. All dilutions were carried out in assay buffer as for ligand binding assay above. 5 μl of a titration of inhibitor was added to a 384 well low volume assay plate (Costar 3676). This was then followed by addition of 0.4 nM cryptate labelled HIS IL1RFc. Assay plates were then sealed and incubated at room temperature in dark for 1 hour.

[3] = molecular target: T1, human IL-1R1, endogenous on human cells …; test: cell-based or functional assay; remark: listed apart in the source
[4] = molecular target: T2, cynomolgus IL-1R1, endogenous on …; test: cell-based or functional assay
[5] = molecular target: Antibody 6 (Eu3+ cryptate labelled, Example 5); test: HTRF competition: unlabelled test protein against biotin labelled human IL-1R1/Fc binding to cryptate labelled antibody
Procedure: Antibody was cryptate labelled with Eu³′ Cryptate labelling kit according to the manufacturer's instructions (CisBio International Cat No. 62EUSPEA) and IL-1R1/Fc (SEQ ID NO: 134, see Material and Methods) was Biotin labelled with EZ Link Sulfo-NHS-Biotin (Perbio Cat No. 21335) according to the manufacturer's instructions. Assay conditions were 0.25 nM Cryptate labelled antibody, 0.3 nM biotin labelled IL-1R1/Fc, 2.5 nM streptavidin XL^{ent!} (CisBio International Cat. No. 611SAXLB) in 1×D-PBS, 0.1% BSA, 0.4M potassium fluoride in a total volume of […] in a 384 well shallow well costar plate (3676). To the assay a dilution series (from maximum of 100 nM to 0.0017 nM) of test proteins was added and the assay incubated for 3 hours at room temperature. FRET signal was detected using a PerkinElmer EnVision plate reader using a 320 nm excitation filter and 620 nm and 665 nm emission filters. Results were calculated from the 665/620 ratio as a percentage of specific binding (signal with no competitor antigen). Results were analysed with Prism (GraphPad Software) using the sigmoidal dose response model.
Antibody binding of chimeric molecules was tested in an HTRF (Homogeneous Time Resolved Fluorescence) competition assay. Molecules which bound antibody at the same paratope as human IL-1R1 inhibited the binding interaction, leading to a reduction in signal. From inhibition curves IC₅₀ values for human IL-1R1, mouse IL-1R1 and chimeric molecules were calculated (Table 12). […] Chimeras that gave similar IC₅₀ values to native human IL-1R1 still contained the epitope.

Chain of Antibody 6 (Eu3+ cryptate labelled, Example 5) (VH, as listed by the source, chain 1 of 2, one chain of several): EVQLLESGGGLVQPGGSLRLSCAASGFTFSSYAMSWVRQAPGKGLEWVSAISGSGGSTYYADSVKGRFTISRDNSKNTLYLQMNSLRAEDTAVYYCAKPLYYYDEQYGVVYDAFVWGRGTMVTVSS

Binder | IC50, inhibition of IL-1 beta induced IL-8 release in HeLa cells (IgG1) [1] | IC50 [2] | also measured
Antibody 6 IgG1 (antibody, V domains shown, Non-germlined IgG1, lambda light chain) VH: not shown VL: QSVLTQPPSVSGAPGQRVTISCTGSSSNIGAGYDVHWYQQLPGTAPKLLIYGDTHRPSGVPDRFSGSKSGTSASLVIAGLQAEDEADYYCQSYDTVRLHHVFGGGTKLTVL | 0.0078 nM | 0.1 nM | –
Antibody 4 IgG1 (antibody, V domains shown) VH: not shown VL: QSVLTQPPSVSGAPGQRVTISCTGSSSNIGAGYDVHWYQQLPGTAPKLLIYGDTHRPSGVPDRFSGSKSGTSASLVIAGLQAEDEADYYCQSYDTSLSGSLFGGGTKLTVL | – | – | IC50, inhibition of human IL-1β induced IL-8 release from HeLa cells [3]: 22 nM
Antibody 8 IgG1 (antibody, V domains shown, Non-germlined IgG1, lambda light chain) VH: not shown VL: QSVLTQPPSVSGAPGQRVTISCTGSSSNIGAGYDVHWYQQLPGTAPKLLIYGDTHRPSGVPDRFSGSKSGTSASLVIAGLQAEDEADYYCQSYDTHLVAHVFGGGTKLTVL | 0.0293 nM | 0.156 nM | –
Antibody 9GL IgG2 (antibody, V domains shown, Germlined IgG2, lambda light chain; also called 28Q1 GL) VH: not shown VL: QSVLTQPPSVSGAPGQRVTISCTGSSSNIGAGYDVHWYQQLPGTAPKLLIYGDTHRPSGVPDRFSGSKSGTSASLAITGLQAEDEADYYCQSYDTLLLAPQFGGGTKLTVL | – | 0.208 nM | IC50, inhibition of IL-1β induced IL-8 release from CYNOM-K1 cells, experiment 1 [4]: 1.2 nM; IC50, inhibition of IL-1β induced IL-8 release from CYNOM-K1 cells, experiment 2 [4]: 1.1 nM; IC50, inhibition of IL-1 alpha induced IL-8 release in HeLa cells (GL IgG2) [1]: 0.0162 nM; IC50, inhibition of IL-1 beta induced IL-8 release in HeLa cells (GL IgG2) [1]: 0.0069 nM
Antibody 5 IgG1 (antibody, V domains shown, Non-germlined IgG1, lambda light chain) VH: not shown VL: QSVLTQPPSVSGAPGQRVTISCTGSSSNIGAGYDVHWYQQLPGTAPKLLIYGDTHRPSGVPDRFSGSKSGTSASLVIAGLQAEDEADYYCQSYDTAGGGHHFGGGTKLTVL | 0.032 nM | 0.186 nM | –
Antibody 7 IgG1 (antibody, V domains shown, Non-germlined IgG1, lambda light chain) VH: not shown VL: QSVLTQPPSVSGAPGQRVTISCTGSSSNIGAGYDVHWYQQLPGTAPKLLIYGDTHRPSGVPDRFSGSKSGTSASLVIAGLQAEDEADYYCQSYDTDAARHQFGGGTKLTVL | 0.0426 nM | 0.168 nM | –
Antibody 9 IgG1 (antibody, V domains shown, Non-germlined IgG1, lambda light chain) VH: not shown VL: QSVLTQPPSVSGAPGQRVTISCTGSSSNIGAGYDVHWYQQLPGTAPKLLIYGDTHRPSGVPDRFSGSKSGTSASLVIAGLQAEDEADYYCQSYDTLLLAPQFGGGTKLTVL | 0.0115 nM | 0.156 nM | –
MoD3 HuD1-D2 IL1R1 (Fc fusion, human;mouse, UniProt P14778 18-227, looked up, not shown: a dimerising Fc or GST, range 1-227;range 231-338) LEADKCKEREEKIILVSSANEIDVRPCPLNPNEHKGTITWYKDDSKTPVSTEQASRIHQHKEKLWFVPAKVEDSGHYYCVVRNSSYCLRIKISAKFVENEPNLCYNAQAIFKQKLPVAGDGGLVCPYMEFFKNENNELPKLQWYKDCKPLLLDNIHFSGVKDRLIVMNVAEKHRGNYTCHASYTYLGKQYPITRVIEFITLEENKPTRPVILSPRNETIEADPGSMIQLICNVTGQFSDLVYWKWNGSEIEWNDPFLAEDYQFVEHPSTKRKYTLITTLNISEVKSQFYRYPFICVVKNTNIFESAHVQLIYPVPDFK | – | – | IC50 [5]: 0.147 nM
MoD1b IL1R1 (Fc fusion, human;mouse, UniProt P14778 18-42, looked up, not shown: a dimerising Fc or GST, range 1-42;range 45-56;range 54-336) LEADKCKEREEKIILVSSANEIDVRKCPLTPNKMHGDTITWYKDDSKTPVSTEQASRIHQHKEKLWFVPAKVEDSGHYYCVVRNSSYCLRIKISAKFVENEPNLCYNAQAIFKQKLPVAGDGGLVCPYMEFFKNENNELPKLQWYKDCKPLLLDNIHFSGVKDRLIVMNVAEKHRGNYTCHASYTYLGKQYPITRVIEFITLEENKPTRPVIVSPANETMEVDLGSQIQLICNVTGQLSDIAYWKWNGSVIDEDDPVLGEDYYSVENPANKRRSTLITVLNISEIESRFYKHPFTCFAKNTHGIDAAYIQLIYPVTNFQK | – | – | IC50 [5]: 0.201 nM
MoD3a2 IL1R1 (Fc fusion, human;mouse, UniProt P14778 18-272, looked up, not shown: a dimerising Fc or GST, range 1-272;range 276-292;range 290-336) LEADKCKEREEKIILVSSANEIDVRPCPLNPNEHKGTITWYKDDSKTPVSTEQASRIHQHKEKLWFVPAKVEDSGHYYCVVRNSSYCLRIKISAKFVENEPNLCYNAQAIFKQKLPVAGDGGLVCPYMEFFKNENNELPKLQWYKDCKPLLLDNIHFSGVKDRLIVMNVAEKHRGNYTCHASYTYLGKQYPITRVIEFITLEENKPTRPVIVSPANETMEVDLGSQIQLICNVTGQLSDIAYWKWNGSVIDEDDPFLAEDYQFVEHPSTKRKSTLITVLNISEIESRFYKHPFTCFAKNTHGIDAAYIQLIYPVTNFQK | – | – | IC50 [5]: 0.268 nM
MoD3b IL1R1 (Fc fusion, human;mouse, UniProt P14778 18-309, looked up, not shown: a dimerising Fc or GST) LEADKCKEREEKIILVSSANEIDVRPCPLNPNEHKGTITWYKDDSKTPVSTEQASRIHQHKEKLWFVPAKVEDSGHYYCVVRNSSYCLRIKISAKFVENEPNLCYNAQAIFKQKLPVAGDGGLVCPYMEFFKNENNELPKLQWYKDCKPLLLDNIHFSGVKDRLIVMNVAEKHRGNYTCHASYTYLGKQYPITRVIEFITLEENKPTRPVIVSPANETMEVDLGSQIQLICNVTGQLSDIAYWKWNGSVIDEDDPVLGEDYYSVENPANKRRSTLITVLNISEIESRFYKHPFICVVKNTNIFESAHVQLIYPVTNFQK | – | – | IC50 [5]: 0.337 nM
Antibody 1 IgG1 (antibody, V domains shown) VH: not shown VL: QAVLTQPSSASGTPGQRVTISCSGSSSNIGSNYVFWYQQFPGTAPQLLVKWNNQRPSGVPDRFSGSKSGTSASLAISGLRSEDEADYYCAAWDDSLSGLVFGGGTKLTVL | – | – | IC50, inhibition of human IL-1β induced IL-8 release from HeLa cells [3]: 95.9 nM
Antibody 2 IgG1 (antibody, V domains shown, Non-germlined IgG1, lambda light chain) VH: not shown VL: QAVLTQPSSASGTPGQRVTISCSGSSSNIGSNYVFWYQQFPGTAPQLLVKWNNQRPSGVPDRFSGSKSGTSASLAISGLRSEDEADYYCAAWDDHLEQLHFGGGTKLTVL | 0.0775 nM | 0.256 nM | –
Antibody 3 IgG1 (antibody, V domains shown, Non-germlined IgG1, lambda light chain) VH: not shown VL: QAVLTQPSSASGTPGQRVTISCSGSSSNIGSNYVFWYQQFPGTAPQLLVKWNNQRPSGVPDRFSGSKSGTSASLAISGLRSEDEADYYCAAWDDAARVLLFGGGTKLTVL | 0.0494 nM | 0.469 nM | –
